Test results published in patent US20240294593A1 (Genentech, published 2024).
Where a chain is given by its changes, count along the chain named. Names may count otherwise. Read-outs that look alike come from different tables or passages of the source.

B1: H1.28_L1 (antibody, human IgG1, kappa, V domains shown)
VH: EVQLVESGGGLVQPGGSLRLSCAASGFTFSSFTMHWVRQAPGKGLEWVSYISSGSSIIYYADSVKGRFTISRDNAKNSLYLQMNSLRAEDTAVYYCARGGRLVWSPDYWGQGTLVTVSS
VL: DIVMTQSPDSLAVSLGERATINCKSSQSLLNSGNQKNYLTWYQQKPGQPPKLLIYWASTRESGVPDRFTGSGSGTDFTLTISSLQAEDVAVYYCQNDYSYPFTFGSGTKLEIKR
notes: also called VH-G35T; Kabat 33T; copies: 2 + 2
B2: H1.29_L1 (antibody, human IgG1, kappa, V domains shown)
VH: B1 VH with T33N
VL: B1 VL
notes: also called VH-G35N; Kabat 33N
B3: H1.30_L1 (antibody, human IgG1, kappa, V domains shown)
VH: B1 VH with T33H
VL: B1 VL
notes: also called VH-G35H; Kabat 33H
B4: H1.31_L1 (antibody, human IgG1, kappa, V domains shown)
VH: B1 VH with T33D
VL: B1 VL
notes: also called VH-G35D; Kabat 33D; copies: 2 + 2
B5: H1.36_L1 (antibody, human IgG1, kappa, V domains shown)
VH: B1 VH with T33G, S52T
VL: B1 VL
notes: also called VH-S54T; Kabat 52T; copies: 2 + 2
B6: H1.114_L1 (antibody, V domains shown)
VH: B1 VH with T33G, G99Y
VL: B1 VL
notes: also called VH-G103Y; Kabat 95
B7: H1.115_L1 (antibody, V domains shown)
VH: B1 VH with T33G, G100A
VL: B1 VL
notes: also called VH-G108A; Kabat 96
B8: H1.116_L1 (antibody, V domains shown)
VH: B1 VH with T33G, G100S
VL: B1 VL
notes: also called VH-G108S; Kabat 96
B9: H1.117_L1 (antibody, V domains shown)
VH: B1 VH with T33G, G100T
VL: B1 VL
notes: also called VH-G108T; Kabat 96
B10: H1.118_L1 (antibody, V domains shown)
VH: B1 VH with T33G, G100Q
VL: B1 VL
notes: also called VH-G108Q; Kabat 96
B11: H1.119_L1 (antibody, V domains shown)
VH: B1 VH with T33G, G100H
VL: B1 VL
notes: also called VH-G108H; Kabat 96
B12: H1.123_L1 (antibody, V domains shown)
VH: B1 VH with T33G, G100Y
VL: B1 VL
notes: also called VH-G108Y; Kabat 96
B13: H1.124_L1 (antibody, V domains shown)
VH: B1 VH with T33G, R101K
VL: B1 VL
notes: also called VH-R109K; Kabat 97
B14: H1.125_L1 (antibody, human IgG1, kappa, V domains shown)
VH: B1 VH with T33G, R101E
VL: B1 VL
notes: also called VH-R109E; Kabat 97; copies: 2 + 2
B15: H1.126_L1 (antibody, V domains shown)
VH: B1 VH with T33G, R101D
VL: B1 VL
notes: also called VH-R109D; Kabat 97
B16: H1.127_L1 (antibody, V domains shown)
VH: B1 VH with T33G, R101H
VL: B1 VL
notes: also called VH-R109H; Kabat 97
B17: H1.128_L1 (antibody, V domains shown)
VH: B1 VH with T33G, R101S
VL: B1 VL
notes: also called VH-R109S; Kabat 97
B18: H1.129_L1 (antibody, V domains shown)
VH: B1 VH with T33G, R101G
VL: B1 VL
notes: also called VH-R109G; Kabat 97
B19: H1.130_L1 (antibody, human IgG1, kappa, V domains shown)
VH: B1 VH with T33G, R101Y
VL: B1 VL
notes: also called VH-R109Y; Kabat 97; copies: 2 + 2
B20: H1.131_L1 (antibody, V domains shown)
VH: B1 VH with T33G, R101I
VL: B1 VL
notes: also called VH-R109I; Kabat 97
B21: H1.133_L1 (antibody, V domains shown)
VH: B1 VH with T33G, L102I
VL: B1 VL
notes: also called VH-L110I; Kabat 98
B22: H1.134_L1 (antibody, V domains shown)
VH: B1 VH with T33G, L102F
VL: B1 VL
notes: also called VH-L110F; Kabat 98
B23: H1.135_L1 (antibody, V domains shown)
VH: B1 VH with T33G, L102V
VL: B1 VL
notes: also called VH-L110V; Kabat 98
B24: H1.136_L1 (antibody, V domains shown)
VH: B1 VH with T33G, L102Y
VL: B1 VL
notes: also called VH-L110Y; Kabat 98
B25: H1.137_L1 (antibody, V domains shown)
VH: B1 VH with T33G, L102W
VL: B1 VL
notes: also called VH-L110W; Kabat 98
B26: H1.138_L1 (antibody, V domains shown)
VH: B1 VH with T33G, L102D
VL: B1 VL
notes: also called VH-L110D; Kabat 98
B27: H1.139_L1 (antibody, V domains shown)
VH: B1 VH with T33G, L102A
VL: B1 VL
notes: also called VH-L110A; Kabat 98
B28: H1.141_L1 (antibody, V domains shown)
VH: B1 VH with T33G, L102K
VL: B1 VL
notes: also called VH-L110K; Kabat 98
B29: H1.142_L1 (antibody, V domains shown)
VH: B1 VH with T33G, V103T
VL: B1 VL
notes: also called VH-V111T; Kabat 99
B30: H1.143_L1 (antibody, V domains shown)
VH: B1 VH with T33G, V103I
VL: B1 VL
notes: also called VH-V111I; Kabat 99
B31: H1.144_L1 (antibody, V domains shown)
VH: B1 VH with T33G, V103L
VL: B1 VL
notes: also called VH-V111L; Kabat 99
B32: H1.145_L1 (antibody, V domains shown)
VH: B1 VH with T33G, V103A
VL: B1 VL
notes: also called VH-V111A; Kabat 99
B33: H1.146_L1 (antibody, V domains shown)
VH: B1 VH with T33G, V103Y
VL: B1 VL
notes: also called VH-V111Y; Kabat 99
B34: H1_L1.22 (antibody, V domains shown)
VH: B1 VH with T33G
VL: B1 VL with G33Y
notes: also called VL-G33Y; Kabat 27f
B35: H1_L1.23 (antibody, V domains shown)
VH: B1 VH with T33G
VL: B1 VL with N34D
notes: also called VL-N34D; Kabat 28
B36: mAb C H1.132_L1 (antibody, V domains shown)
VH: B1 VH with T33G, R101W
VL: B1 VL
notes: copies: 2 + 2
B37: mAb C H1.19_L1 (antibody, name in Kabat numbering, V domains shown)
VH: B1 VH with F32L, T33G
VL: DIVMTQSPDSLAVSLGERATINCKSSQSLLNSGNQKNYLTWYQQKPGQPPKLLIYWASTRESGVPDRFTGSGSGTDFTLTISSLQAEDVAVYYCQNDYSYPFTFGSGTKLEIK

Columns and labels:
Test in all cases: Octet
human PD-1-His [1] = molecular target: T1, human PD-1-His (human, UniProt Q15116 25-167, limits assumed)
T1 construct: Antigen of the Octet assays; not shown: His tag
T1 sequence (Q15116 25-167 limits assumed): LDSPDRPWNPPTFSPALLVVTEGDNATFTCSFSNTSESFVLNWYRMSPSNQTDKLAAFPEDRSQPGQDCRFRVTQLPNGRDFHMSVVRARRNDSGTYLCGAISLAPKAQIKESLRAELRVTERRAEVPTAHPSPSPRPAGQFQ

human PD-1-His [2] = molecular target: T1, human PD-1-His; remark: listed apart in the source
human PD-1-His [3] = molecular target: T1, human PD-1-His; remark: listed apart in the source

| Binder | Kd (human PD-1-His [2]) [nM] | koff (human PD-1-His [2]) [s⁻¹] | kon (human PD-1-His [2]) [M⁻¹ s⁻¹] | other results |
| --- | --- | --- | --- | --- |
| B1 | – | – | – | Kd (human PD-1-His [1]): 92.7 nM; koff (human PD-1-His [1]): 0.0279 s⁻¹; kon (human PD-1-His [1]): 301000 M⁻¹ s⁻¹ |
| B2 | – | – | – | Kd (human PD-1-His [1]): 223 nM; koff (human PD-1-His [1]): 0.0437 s⁻¹; kon (human PD-1-His [1]): 196000 M⁻¹ s⁻¹ |
| B3 | – | – | – | Kd (human PD-1-His [1]): 76.4 nM; koff (human PD-1-His [1]): 0.0257 s⁻¹; kon (human PD-1-His [1]): 337000 M⁻¹ s⁻¹ |
| B4 | – | – | – | Kd (human PD-1-His [1]): 56.4 nM; koff (human PD-1-His [1]): 0.0401 s⁻¹; kon (human PD-1-His [1]): 711000 M⁻¹ s⁻¹ |
| B5 | – | – | – | Kd (human PD-1-His [1]): 374 nM; koff (human PD-1-His [1]): 0.046 s⁻¹; kon (human PD-1-His [1]): 123000 M⁻¹ s⁻¹ |
| B6 | 592 | 0.0875 | 148000 | – |
| B7 | 76.7 | 0.0116 | 151000 | – |
| B8 | 183 | 0.0347 | 190000 | – |
| B9 | 121 | 0.0105 | 86900 | – |
| B10 | 192 | 0.0316 | 164000 | – |
| B11 | 186 | 0.0376 | 202000 | – |
| B12 | 350 | 0.0538 | 154000 | – |
| B13 | 48.8 | 0.00674 | 138000 | – |
| B14 | 18.7 | 0.0052 | 278000 | – |
| B15 | 43.1 | 0.0109 | 254000 | – |
| B16 | 30.8 | 0.00578 | 188000 | – |
| B17 | 32.8 | 0.00608 | 186000 | – |
| B18 | 43.2 | 0.00719 | 167000 | – |
| B19 | 22.1 | 0.00505 | 228000 | – |

| Binder | Kd (human PD-1-His [2]) [nM] | koff (human PD-1-His [2]) [s⁻¹] | kon (human PD-1-His [2]) [M⁻¹ s⁻¹] | other results |
| --- | --- | --- | --- | --- |
| B20 | 43.5 | 0.00878 | 202000 | – |
| B21 | 49.5 | 0.00753 | 152000 | – |
| B22 | 60.8 | 0.0088 | 145000 | – |
| B23 | 46.7 | 0.00685 | 147000 | – |
| B24 | 54.5 | 0.00863 | 158000 | – |
| B25 | 32.6 | 0.0056 | 172000 | – |
| B26 | 116 | 0.0128 | 110000 | – |
| B27 | 98.9 | 0.011 | 111000 | – |
| B28 | 118 | 0.0132 | 112000 | – |
| B29 | 88 | 0.0118 | 134000 | – |
| B30 | 35.6 | 0.00633 | 178000 | – |
| B31 | 130 | 0.0174 | 134000 | – |
| B32 | 110 | 0.0177 | 161000 | – |
| B33 | 102 | 0.0157 | 155000 | – |
| B34 | – | – | – | Kd (human PD-1-His [3]): 271 nM; koff (human PD-1-His [3]): 0.0269 s⁻¹; kon (human PD-1-His [3]): 99100 M⁻¹ s⁻¹ |
| B35 | – | – | – | Kd (human PD-1-His [3]): 57.6 nM; koff (human PD-1-His [3]): 0.006 s⁻¹; kon (human PD-1-His [3]): 104000 M⁻¹ s⁻¹ |
| B36 | 9.63 | 0.00218 | 227000 | – |
| B37 | – | – | – | Kd (human PD-1-His [1]): 16.7 nM; koff (human PD-1-His [1]): 0.00217 s⁻¹; kon (human PD-1-His [1]): 130000 M⁻¹ s⁻¹ |
